These results are taken from article PMC3486956.

This experiment has as its target aggregated glucose-6-phosphate dehydrogenase (G6PDH) from Leuconostoc mesenteroides (Leuconostoc mesenteroides) (UniProt P11411). As to the kind of experiment: retention with aggregates on a 0.1-μm filter, SDS-PAGE.
UniProt P11411, sequence (P11411 whole entry): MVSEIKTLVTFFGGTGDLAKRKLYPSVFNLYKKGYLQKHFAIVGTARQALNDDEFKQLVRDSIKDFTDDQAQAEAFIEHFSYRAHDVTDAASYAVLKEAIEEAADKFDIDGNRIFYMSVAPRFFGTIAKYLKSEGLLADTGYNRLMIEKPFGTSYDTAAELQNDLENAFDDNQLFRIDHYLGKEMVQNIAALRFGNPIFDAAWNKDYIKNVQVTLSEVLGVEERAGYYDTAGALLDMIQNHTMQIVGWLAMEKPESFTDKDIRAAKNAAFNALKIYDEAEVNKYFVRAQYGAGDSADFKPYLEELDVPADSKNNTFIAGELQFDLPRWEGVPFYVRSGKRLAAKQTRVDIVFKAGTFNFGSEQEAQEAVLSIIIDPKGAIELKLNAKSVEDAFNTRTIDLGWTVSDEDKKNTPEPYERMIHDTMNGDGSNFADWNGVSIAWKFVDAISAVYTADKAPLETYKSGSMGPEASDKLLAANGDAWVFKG

On to “ClpB 2P (GG motif converted into PP) (from UniProt P63284 1-857) (natural protein)”, for which the decrease of the amount bound compared to wt ClpB stood at 50%.
The value for “ClpB 4G (four Gly inserted in the N-terminal linker) (from UniProt P63284 1-857) (natural protein)” was 50%.
